What was measured:
[1] = tested on: gg1 six-finger protein (synthetic); conditions: CITED ref 40 (Graslund 2005); cited from earlier work
[2] = tested on: pE2S six-finger protein (synthetic (Zif268/Sp1C framework)); test: footprint; conditions: DNase I footprint, 10 uM Zn, 4 C, mean of three; protected exactly the 18 bp site
[3] = tested on: pE2S six-finger protein (synthetic (Zif268/Sp1C framework)); test: EMSA

**Q.** For “GTCAAGGCAAGGCTGGCC (double strand) [gg1 target site]”, which Kd [1] is on record?
**A.** 0.7 nM

**Q.** With “ERBB-2 promoter fragment, 267 bp (-209 to +3)” as the substance, how does the Kd [2] read?
**A.** 14 nM

**Q.** Which Kd [3] does the source give for “CGGGGGGCTCCCCTGGTT (double strand) [E2S target site]” here?
**A.** 3.25 nM
